# In patent publication US20100290984A1 (DUKE UNIVERSITY, published 2010):
# No end group written: not given here.
# Tests used:
# [1] = molecular target: T1, MRP3-derived peptide II (PepII) (human, also: conjugated to BSA, biotinylated, site not given here); experiment: SPR, BIAcore 3000, biotinylated peptide on SA chip, scFv in flow
# T1 construct: Same peptide used as BSA conjugate (ELISA) and as biotinylated peptide (SPR on SA chip, bead assay); also called PepII antigen
# T1 peptide: VHTENPDLTPCF
# Procedure: (§1) Kinetic measurements of purified recombinant scFv were made by surface plasmon resonance using a BIAcore 3000 Biosensor (BIAcore, Piscataway, N.J.). Chips were functionalized with biotinylated peptides derived from MRP3 protein by using HEPES balanced salt solution (HBSS buffer), 10 mM HEPES pH 7.4, 150 mM NaCl, 3.4 mM EDTA, and 0.05% BIAcore surfactant P20. The scFv antibodies were diluted in HBSS buffer and passed over the SA chip at concentrations of 25, 200, and 1000 nM. The flow rate was kept at 30 μl/min, and the injection time was 3 min. Binding constants were calculated from the nonlinear fitting curve by using the BlAevaluation software (BIAcore).
# [2] = molecular target: T2, MRP3-derived peptide III (PepIII) (human, also: conjugated to BSA, biotinylated, site not given here); experiment: ELISA, plate coated with MRP3-derived peptides conjugated with BSA, purified scFv, HRP anti-His detection
# T2 construct: Same peptide used as BSA conjugate (ELISA) and as biotinylated peptide (SPR)
# T2 peptide: DAMADSRQNNTSLRL
# Procedure: (§2) A 96-well plate was coated with 10 μg/ml of specific MRP3-derived peptides conjugated with BSA as antigen and BSA and other appropriate control antigens. The rest of the protocol was as described above except that the purified scFv antibodies were added in serial dilution to the wells, and the secondary Ab used was HRP-conjugated anti-His antibody at 1:5000 dilution (Invitrogen, Carlsbad, Calif.). To check for cross-reactivity of the recombinant scFvs, the ELISA plate was coated with different peptide antigens (i.e., PepI, PepII, PepIII, PepIV) derived from MRP3, conjugated to BSA with other controls. ScFv antibodies were then added at a 10 μg/ml concentration to each well.
# [3] = molecular target: T3, MRP3-derived peptide I (PepI) (human, conjugated to BSA in the ELISA; biotinylated in BIAcore and on streptavidin beads (site of attachment not stated)); experiment: as above
# T3 construct: Same peptide used as BSA conjugate (ELISA) and as biotinylated peptide (SPR on SA chip, bead assay); also called PepI antigen
# T3 peptide: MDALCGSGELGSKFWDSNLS
# Procedure: as §2
# [4] = molecular target: T4, MRP3-derived peptide IV (PepIV) (human, also: conjugated to BSA, biotinylated, site not given here); experiment: as above
# T4 construct: Same peptide used as BSA conjugate (ELISA) and as biotinylated peptide (SPR)
# T4 peptide: KIRSPQSFFDTTPSGRI
# Procedure: as §2
# [5] = molecular target: T1, MRP3-derived peptide II (PepII); experiment: SPR, BIAcore 3000, KA=kassoc/kdiss
# Procedure: as §1
# (§3) The association and dissociation rates from the sensograms were in the same range for PepI-58 scFv, PepI-25 scFv, and PepII-89 scFv. […] The final binding affinity was determined by the software developed by BIAcore based on the kinetics calculated among various concentrations of antibody. PepI-25 scFv had kassoc=1.3×10⁵ (mol/L-s)⁻¹, kdiss=2.8×10⁻³ s⁻¹, and KA=kassoc/kdiss, was 4.6×10⁷ (mol/L)⁻¹.
# [6] = molecular target: T5, human multidrug resistance protein 3 (MRP3) (human, UniProt O15438 1-1527); experiment: indirect flow cytometry on viable D2159 cells (surface), anti-His-FITC detection
# T5 construct: whole, on cells; ABC transporter; endogenous on human malignant glioma cell lines D54MG, D247MG and pediatric GBM line D2159; also called cell-surface-expressed MRP3; native MRP3
# [7] = molecular target: T3, MRP3-derived peptide I (PepI); experiment: SPR, BIAcore 3000, biotinylated pep-I on SA chip, scFv 25 to 1000 nM
# Procedure: as §1, §3
# [8] = molecular target: T2, MRP3-derived peptide III (PepIII); experiment: ELISA, peptide-BSA coated, purified scFv, anti-His-HRP
# Procedure: as §2
# [9] = molecular target: T1, MRP3-derived peptide II (PepII); experiment: as above
# Procedure: as §2
# [10] = molecular target: T4, MRP3-derived peptide IV (PepIV); experiment: as above
# Procedure: as §2
# [11] = molecular target: T3, MRP3-derived peptide I (PepI); experiment: SPR, BIAcore 3000, KA=kassoc/kdiss
# Procedure: as §1, §3
# [12] = molecular target: T3, MRP3-derived peptide I (PepI); experiment: SPR, BIAcore 3000, biotinylated peptide on SA chip, scFv in flow
# Procedure: as §1
# [13] = molecular target: T1, MRP3-derived peptide II (PepII); experiment: ELISA, plate coated with MRP3-derived peptides conjugated with BSA, purified scFv, HRP anti-His detection
# Procedure: as §2
# [14] = molecular target: T5, human multidrug resistance protein 3 …; experiment: indirect flow cytometry on MRP3-expressing glioma cells
# Procedure: To determine that the purified anti-MRP3 scFvs bind native MRP3 expressed on the surface of tumor cells, indirect fluorescence-activated cell sorting (FACS) was performed using MRP3-expressing D54MG and D247MG cells under both permeabilized and nonpermeabilized conditions. Indirect FACS analysis of MRP3 expression on the surface of viable malignant pediatric GBM cell line D2159 growing as neuroshperes was also performed.
# For cytometric analysis of PepI-58, PepI-25, PepII-89, PepIII-23, and PepIV-17 scFv antibodies, D54MG and D247MG cells (1×10⁶/test) were harvested with 0.02% EDTA/PBS and fixed by resuspending them in 2-4 ml of 10% formaldehyde. After washing, the cells were blocked with 10% normal goat serum (NGS) with and without saponin for 20 min. Saponin was added to facilitate the permeabilization for examining all […] receptors. Cells were washed twice and incubated with anti-his (C-terminus)-FITC conjugated antibody (1:5000, Invitrogen, Carlsbad, Calif.) for an hour at room temperature. Finally, cells were suspended in 0.5% PFA/BSA and freshly analyzed by using a Becton Dickinson FACSort with CellQuest software (Becton Dickinson, San Jose, Calif.).
# [15] = molecular target: T2, MRP3-derived peptide III (PepIII); experiment: SPR, BIAcore, biotinylated peptide on chip
# [16] = molecular target: T3, MRP3-derived peptide I (PepI); experiment: ELISA, peptide-BSA coated, purified scFv, anti-His-HRP
# Procedure: as §2
Binder,binding result [2],binding result [4],binding result [9],binding result [10],Ka [11] [M⁻¹],binding result [6],also measured
"PepI-25 scFv (scFv, not shown: Myc and hexahistidine tags from the pET 22(+) vector) scFv: EVQLVESGGGLVQPGGSLRLSCAASGFTFSNYAMTWVRQAPGKGLEWVSAISGSGGSTYYADSVKGRFTISRDNSKNTLYLQMNSLRAEDTAVYYCATGDLDYWGQGTTVTVSSGGGGSGGGGSGGGGSQTVVTQEPSLTVSPGGTVTLTCASSTGAVTSGYYPNWFQQKPGQAPRALIYSTSNKHSWTPARFSGSLLGGKAALTLSGVQPEDEAEYYCLLYYGGAQPYVVFGGGTKVTVLGQPKAAPS",–,–,no binding (tested: 10 µg/ml),no binding (tested: 10 µg/ml),4.6e+07,binds,koff [7]: 0.0028 s⁻¹; binding result [8]: no binding (tested: 10 µg/ml)
"PepI-58 scFv (scFv, also called anti-MRP3 PepI-58scFv; not shown: Myc and hexahistidine tags from the pET 22(+) vector, at the C terminus) scFv: EVQLVQSGGGLVQPGGSLRLSCSASGFTFSNYAMHWVRRAPGKGLEYVSAISSNGGSTYYADSVKGRFTISRDNPKNTLYLQMNSLRAEDTAVYYCVRGRPYPLDVWGKGTLVTVSSGGGGSGGGGSGGGGSQSVLTQPPSASGTPGQRVTISCSGSSSNIESHAVNWYQHLPGSAPKLLIYFNNHRPSGVPERFSASKSGTSASLAISGLQSEDEADYYCAAWDDSLNGPVFGGGTKLTVLGQPKAAPS",no binding (tested: 10 ug/ml),no binding (tested: 10 ug/ml),–,–,2.1e+07,binds,koff [12]: 0.0034 s⁻¹; binding result [13]: no binding (tested: 10 ug/ml)

# Now from value to binder, other results behind:
binding result [2],binding result [4],binding result [9],binding result [10],Ka [11] [M⁻¹],Binder,binding result [6],also measured
no binding (tested: 10 ug/ml),no binding (tested: 10 ug/ml),–,–,–,"PepII-89 scFv (scFv, also called anti-MRP3 PepII-89scFv; not shown: Myc and hexahistidine tags from the pET 22(+) vector, at the C terminus) scFv: QVQLVQSGGGVVQPGRSLRLSCAASGFTFSSYGMHWVRQDPGKGLMWVSSISTDGSATKYADSVKGRFTISRDNAKNTVSLQMNSLRAEDTAVYYCVGGFLGWWGQGTLVTVSSGGGGSGGGGSGGGGSEIVLTQSPATLSLSPGERATLSCRASQSVGGSYLAWYQQKPGQAPRLLIYGASRRATGIPARFSGSGSGTDFTLTISSLQPEDFASYFCQQTNTFPLTFGGGTKVEIKRTVAAPTAAA",–,koff [1]: 0.005 s⁻¹; binding result [3]: no binding (tested: 10 ug/ml); Ka [5]: 1e+07 M⁻¹
–,–,no binding (tested: 10 µg/ml),no binding (tested: 10 µg/ml),–,"PepIII-23 scFv (scFv, not shown: Myc and hexahistidine tags from the pET 22(+) vector) scFv: EVQLVQSGGGLVKPGGSLRLSCAASGFSFNNYAGSWVRQAPGKGLEWISALSSGGDTTYYADSVAGRFAISRDNSKNTLYLQMHSLRAEDTAIYYCAQDPVVGAPGYFGLWGRGTLVTVSSGGGGSGGGGSGGGGSQSVLTQPPSASGSSGQSVTISCTGTSSDIGGYNYVSWYQQHPGKAPKLMIYEVSKRPSGVSDRFSGSKSGSTASLHISGLQAEDEADYYCSSYSSNNAPYVFGSGTKVAVLGQPKAAPS",–,binding result [14]: no binding; binding result [15]: binds; binding result [16]: no binding (tested: 10 µg/ml)
